± gives the uncertainty stated by the source.
B1: RanBP-type and C3HC4-type zinc finger-containing protein 1, residues 369 to 411; numbered along this chain, Q9BYM8 (parent)
chain: YHCKTPDCKGWCFFEDDVNEFTCPVCFHVNCLLCKAIHEQMNC

Variants of: B1
Test: abundance fitness (aPCA) (normalised: wild type 0, dead -1); higher = more abundant; growth selection in yeast, the domain comes from the species named
Conditions: Homo sapiens

Variant	abundance fitness
L32W	-0.417 ± 0.058
L32T	-0.015 ± 0.05
L32R	0.026 ± 0.039
L32K	0.037 ± 0.051
L32V	-0.167 ± 0.051
L32N	-0.131 ± 0.14
M41G	0.202 ± 0.038
M41L	-0.076 ± 0.049
M41S	0.156 ± 0.047
M41W	-0.035 ± 0.055
M41P	0.059 ± 0.052
M41H	0.043 ± 0.083
M41A	0.178 ± 0.042
M41Y	-0.173 ± 0.13
N42Q	0.304 ± 0.099
N42P	0.219 ± 0.058
N42H	0.138 ± 0.091
N42R	-0.008 ± 0.046
N42G	0.161 ± 0.041
F21E	-0.501 ± 0.052
F21A	0.083 ± 0.043

Variant	abundance fitness
H2Q	0.091 ± 0.053
H2S	-0.072 ± 0.05
H2N	0.104 ± 0.1
H2A	-0.285 ± 0.044
H2R	0.035 ± 0.041
T22G	-0.658 ± 0.05
T22F	-0.261 ± 0.16
T22P	-0.413 ± 0.17
T22Q	-0.118 ± 0.085
F27R	0.005 ± 0.04
E20K	-0.202 ± 0.063
E20P	-0.83 ± 0.098
C34R	-0.683 ± 0.05
C34P	-0.174 ± 0.067
V29A	-0.368 ± 0.046
V29K	-0.109 ± 0.095
V29W	-0.319 ± 0.074
V29F	-0.54 ± 0.1
C12G	-0.274 ± 0.3
D7S	-0.165 ± 0.048
D7C	-0.656 ± 0.42

Variant	abundance fitness
D7K	-0.095 ± 0.074
D7G	0.057 ± 0.04
E15Q	-0.096 ± 0.068
E15H	-0.321 ± 0.14
E15K	-0.169 ± 0.15
E15G	-0.204 ± 0.039
D16A	0.006 ± 0.051
D16T	-0.088 ± 0.058
D16S	-0.14 ± 0.089
D16N	-0.171 ± 0.1
D16G	-0.075 ± 0.047
D16P	0.113 ± 0.083
D16K	0.146 ± 0.063
K4Y	-0.084 ± 0.096
K4P	-0.527 ± 0.072
K4H	-0.174 ± 0.067
K4I	-0.206 ± 0.14
V25W	-0.406 ± 0.061
V25A	-0.136 ± 0.066
V25D	-0.142 ± 0.058
V25I	-0.057 ± 0.089

Variant	abundance fitness
V25R	-0.242 ± 0.045
V25G	-0.49 ± 0.055
V25S	-0.225 ± 0.047
L33C	-0.213 ± 0.078
L33F	-0.313 ± 0.14
L33K	0.138 ± 0.043
L33P	0.084 ± 0.058
L33N	-0.116 ± 0.1
L33S	-0.065 ± 0.045
D17K	0.079 ± 0.062
D17G	0.116 ± 0.043
E39R	-0.111 ± 0.045
E39V	-0.155 ± 0.048
E39H	-0.167 ± 0.079
E39L	-0.106 ± 0.057
E39C	-0.27 ± 0.095
E39W	-0.249 ± 0.06
F13E	0.428 ± 0.14
H28C	-0.205 ± 0.06
H28P	-0.912 ± 0.077
H28S	-0.029 ± 0.048
